This passage reports Kd results from publication PMC7869511, “Computer-aided design of PVR mutants with enhanced binding affinity to TIGIT” (Cell Communication and Signaling : CCS, 2021).

Like-named read-outs stand apart in the source and are kept apart here.

The target in one experiment is nectin-2 (Homo sapiens) (UniProt Q92692). The settings on record: cited from earlier work.
Experiment [1] addresses PVR (Homo sapiens) (UniProt P15151). The settings on record: cited from earlier work.
Experiment [2] has the same target. The settings on record: cited from earlier work. This is another data set of the same source.
For experiment [3], the target named is T1, wild-type PVR fused with EGFP, extracted membrane protein (human), P15151.
T1 chain: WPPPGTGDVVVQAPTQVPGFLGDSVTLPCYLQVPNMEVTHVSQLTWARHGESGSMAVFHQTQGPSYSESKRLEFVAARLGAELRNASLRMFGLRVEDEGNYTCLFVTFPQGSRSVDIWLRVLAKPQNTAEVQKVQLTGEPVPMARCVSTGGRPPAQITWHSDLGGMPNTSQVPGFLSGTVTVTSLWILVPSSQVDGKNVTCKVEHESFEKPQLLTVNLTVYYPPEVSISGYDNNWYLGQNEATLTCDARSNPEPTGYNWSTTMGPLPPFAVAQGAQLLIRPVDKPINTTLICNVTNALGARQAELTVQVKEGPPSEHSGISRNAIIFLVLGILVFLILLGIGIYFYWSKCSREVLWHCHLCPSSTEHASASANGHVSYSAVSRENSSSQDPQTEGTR
Kind of experiment: MST; extracted membrane protein of PVR or PVR mutants fused with EGFP (quantified by EGFP fluorescence) as the fluorescent partner; TIGIT-His serially diluted two-fold from 25 μM to 0.000153 μM. The settings on record: remark: other sources report otherwise.

The target of experiment [4] is T2, PVR mutant S72W fused with EGFP, extracted membrane protein (human, UniProt P15151 21-417, S72W).
T2 construct: poliovirus receptor (PVR, CD155), human; Probably the full-length membrane protein; also called PVRS72W; source: membrane protein extracted, quantified by EGFP fluorescence
T2 sequence (looked up): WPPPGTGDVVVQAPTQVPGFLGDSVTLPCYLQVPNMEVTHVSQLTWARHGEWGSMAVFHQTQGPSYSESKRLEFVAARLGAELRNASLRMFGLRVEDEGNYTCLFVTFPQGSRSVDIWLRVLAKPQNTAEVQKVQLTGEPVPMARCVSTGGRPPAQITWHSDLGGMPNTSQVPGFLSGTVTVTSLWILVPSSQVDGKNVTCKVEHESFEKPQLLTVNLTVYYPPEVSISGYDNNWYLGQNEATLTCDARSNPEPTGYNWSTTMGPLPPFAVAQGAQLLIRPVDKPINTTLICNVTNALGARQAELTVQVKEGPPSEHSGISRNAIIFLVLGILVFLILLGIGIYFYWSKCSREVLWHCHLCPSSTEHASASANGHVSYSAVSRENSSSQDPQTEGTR
Described as above. The settings on record: one partner purified.

Experiment [5] deals with T3, PVR mutant S72R fused with EGFP, extracted membrane protein (human, UniProt P15151 21-417, S72R).
T3 construct: poliovirus receptor (PVR, CD155), human; Probably the full-length membrane protein; also called PVRS72R; source: membrane protein extracted, quantified by EGFP fluorescence
T3 sequence (looked up): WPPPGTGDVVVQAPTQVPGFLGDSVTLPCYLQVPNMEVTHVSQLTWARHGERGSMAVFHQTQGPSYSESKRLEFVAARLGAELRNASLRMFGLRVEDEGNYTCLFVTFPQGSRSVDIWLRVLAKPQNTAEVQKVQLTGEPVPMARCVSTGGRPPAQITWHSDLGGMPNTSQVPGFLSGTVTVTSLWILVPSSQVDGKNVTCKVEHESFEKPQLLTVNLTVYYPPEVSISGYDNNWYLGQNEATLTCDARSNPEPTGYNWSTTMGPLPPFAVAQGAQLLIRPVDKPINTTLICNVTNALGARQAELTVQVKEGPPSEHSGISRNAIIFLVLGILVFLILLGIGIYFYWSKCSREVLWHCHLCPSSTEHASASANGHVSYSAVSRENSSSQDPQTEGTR
The experiment is described as above. The settings on record: one partner purified.

Experiment [6] has as its target T4, PVR mutant G131V fused with EGFP, extracted membrane protein (human, UniProt P15151 21-417, G131V).
T4 construct: poliovirus receptor (PVR, CD155), human; Probably the full-length membrane protein; also called PVRG131V; source: membrane protein extracted, quantified by EGFP fluorescence
T4 sequence (looked up): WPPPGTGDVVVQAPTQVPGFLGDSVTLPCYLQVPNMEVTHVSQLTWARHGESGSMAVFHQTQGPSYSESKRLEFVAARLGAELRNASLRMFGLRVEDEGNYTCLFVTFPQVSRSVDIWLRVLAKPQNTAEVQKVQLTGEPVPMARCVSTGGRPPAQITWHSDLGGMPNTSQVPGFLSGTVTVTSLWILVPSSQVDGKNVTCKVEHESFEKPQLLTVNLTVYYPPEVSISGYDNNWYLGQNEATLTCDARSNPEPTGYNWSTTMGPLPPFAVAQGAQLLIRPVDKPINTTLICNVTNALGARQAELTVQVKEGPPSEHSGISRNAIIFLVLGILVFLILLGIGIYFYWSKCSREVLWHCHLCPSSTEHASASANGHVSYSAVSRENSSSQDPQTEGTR
Described as above. The settings on record: one partner purified.

For experiment [7], the target named is T5, PVR mutant S132Q fused with EGFP, extracted membrane protein (human, UniProt P15151 21-417, S132Q).
T5 construct: poliovirus receptor (PVR, CD155), human; Probably the full-length membrane protein; also called PVRS132Q; source: membrane protein extracted, quantified by EGFP fluorescence
T5 sequence (looked up): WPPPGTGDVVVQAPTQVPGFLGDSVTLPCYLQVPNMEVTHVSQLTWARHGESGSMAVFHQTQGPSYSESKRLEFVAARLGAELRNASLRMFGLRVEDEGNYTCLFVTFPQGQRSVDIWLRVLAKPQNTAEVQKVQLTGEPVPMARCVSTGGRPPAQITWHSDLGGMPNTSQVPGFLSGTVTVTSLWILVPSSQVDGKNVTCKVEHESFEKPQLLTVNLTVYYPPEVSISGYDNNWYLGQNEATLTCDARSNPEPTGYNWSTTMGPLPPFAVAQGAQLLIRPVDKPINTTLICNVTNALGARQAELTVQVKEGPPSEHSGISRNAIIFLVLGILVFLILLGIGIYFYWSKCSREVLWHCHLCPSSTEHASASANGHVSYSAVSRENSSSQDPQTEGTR
Described as above. The settings on record: one partner purified.

nectin-2 (Homo sapiens), sequence (Q92692 32-360): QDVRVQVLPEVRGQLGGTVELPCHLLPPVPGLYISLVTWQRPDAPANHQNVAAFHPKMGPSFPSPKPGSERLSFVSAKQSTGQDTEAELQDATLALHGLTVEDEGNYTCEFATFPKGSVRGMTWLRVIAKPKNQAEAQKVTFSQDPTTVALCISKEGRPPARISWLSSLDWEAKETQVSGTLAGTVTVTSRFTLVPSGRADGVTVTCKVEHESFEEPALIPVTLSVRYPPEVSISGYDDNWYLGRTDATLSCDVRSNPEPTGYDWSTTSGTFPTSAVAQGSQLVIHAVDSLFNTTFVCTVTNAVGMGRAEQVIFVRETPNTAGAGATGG

The term Kd denotes the concentration at which binding is half-saturated. Turning to TIGIT (from UniProt Q495A1), the Kd with nectin-2 (Homo sapiens) was 5800 nM; in the experiment with PVR (Homo sapiens) [1] it was 3200 nM.
On to CD96 (from UniProt P40200), for which, in the experiment with PVR (Homo sapiens) [2], the Kd is 10200 nM.

B1: TIGIT-His eukaryotic protein, Q495A1 22-244 (receptor)
chain: MMTGTIETTGNISAEKGGSIILQCHLSSTTAQVTQVNWEQQDQLLAICNADLGWHISPSFKDRVAPGPGLGLTLQSLTVNDTGEYFCIYHTYPDGTYTGRIFLEVLESSVAEHGARFQIP
modifications: here or on the partner: expressed in eukaryotic cells (glycosylated); His tag omitted; construct limits not given, so the mature extracellular domain (UniProt topology) is used by convention
In the case of B1, the Kd in experiment [3] was determined as 1150 nM.

B2: TIGIT-His eukaryotic protein (receptor)
chain: MMTGTIETTGNISAEKGGSIILQCHLSSTTAQVTQVNWEQQDQLLAICNADLGWHISPSFKDRVAPGPGLGLTLQSLTVNDTGEYFCIYHTYPDGTYTGRIFLEVLESSVAEHGARFQIP
modifications: expressed in eukaryotic cells (glycosylated); His tag omitted; construct limits not given, so the mature extracellular domain (UniProt topology) is used by convention
Take B2: the Kd in experiment [4] was determined as 328 nM; in experiment [5] it was 549 nM; in experiment [6], 16 nM; in experiment [7] it was 58 nM.
